Results as given in the supplement of paper PMC9233669.
Fewer inactive variants are shown than the library holds.

Legend:
[1] = tested on: biotinyl-Phe-oxazolone; experiment: self-aminoacylation, catalytic enhancement (BFO) (fold over background); higher = more active; k-Seq, kA / k0A0; sequences stand for … in GGGAAUGGAUCCACAUCUACGAAUUC…UUCACUGCAGACUUGACGAAGCUG
Method in brief: (§1)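 Working in 50 μL HEPES/NaCl/KCl/MgCl2/CaCl2 buffer with 5% acetonitrile at pH 6.9–7.0, mutagenized RNA pools (0.43 μM; 21-nt variable region) were reacted with 2–1250 μM of each biotinyl-aminoacyl-oxazolone for 90 minutes at room temperature. Streptavidin capture followed, with quantification by triplicate qPCR and Illumina sequencing. Catalytic enhancement is reported as median kA over the uncatalyzed rate, the low-activity peak of a bimodal Gaussian fit to the data.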

[2] = tested on: biotinyl-Ile-oxazolone; experiment: self-aminoacylation, catalytic enhancement (BIO) (fold over background); higher = more active; k-Seq, kA / k0A0; sequences stand for … in GGGAAUGGAUCCACAUCUACGAAUUC…UUCACUGCAGACUUGACGAAGCUG
Method in brief: as §1

[3] = tested on: biotinyl-Val-oxazolone; experiment: self-aminoacylation, catalytic enhancement (BVO) (fold over background); higher = more active; k-Seq, kA / k0A0; sequences stand for … in GGGAAUGGAUCCACAUCUACGAAUUC…UUCACUGCAGACUUGACGAAGCUG
Method in brief: as §1

[4] = tested on: biotinyl-Leu-oxazolone; experiment: self-aminoacylation, catalytic enhancement (BLO) (fold over background); higher = more active; k-Seq, kA / k0A0; sequences stand for … in GGGAAUGGAUCCACAUCUACGAAUUC…UUCACUGCAGACUUGACGAAGCUG
Method in brief: as §1

[5] = tested on: biotinyl-Trp-oxazolone; experiment: self-aminoacylation, catalytic enhancement (BWO) (fold over background); higher = more active; k-Seq, kA / k0A0; sequences stand for … in GGGAAUGGAUCCACAUCUACGAAUUC…UUCACUGCAGACUUGACGAAGCUG
Method in brief: as §1

[6] = tested on: biotinyl-Met-oxazolone; experiment: self-aminoacylation, catalytic enhancement (BMO) (fold over background); higher = more active; k-Seq, kA / k0A0; sequences stand for … in GGGAAUGGAUCCACAUCUACGAAUUC…UUCACUGCAGACUUGACGAAGCUG
Method in brief: as §1

Row | Sequence | self-aminoacylation [1] | self-aminoacylation [2] | self-aminoacylation [3] | self-aminoacylation [4] | self-aminoacylation [5] | self-aminoacylation [6]
1 | AAGUUUUCUACUAGUCGCAAG [Fam3.1 aminoacylation ribozyme variant] | 3.09 | 1.99 | 1.51 | 1.79 | 1.86 | 1.67
2 | AAGUUUUCUGAUAGUCGCAAG [Fam3.1 aminoacylation ribozyme variant] | 2.8 | 1.77 | 1.38 | 1.55 | 1.81 | 1.56
3 | AAGUUUUGUAAUAGUCGCAAG [Fam3.1 aminoacylation ribozyme variant] | 2.1 | 1.64 | 1.55 | 1.5 | 1.84 | 1.53
4 | AAUAACCUAGGUCAUCGGGUG [Fam2.2 aminoacylation ribozyme variant] | 22.8 | 3.18 | 3.3 | 4.57 | 5.23 | 4.25
5 | AAUACACUGGUCAUCGAGUGA [Fam2.1 aminoacylation ribozyme variant] | 8.92 | 3.65 | 3.4 | 4.56 | 6.47 | 4.13
6 | AAUACCCUGGACAUCGAGUGA [Fam2.1 aminoacylation ribozyme variant] | 10.5 | 2.25 | 2.25 | 4.14 | 5.44 | 3.95
7 | AAUACCCUGGCCAUCGAGUGA [Fam2.1 aminoacylation ribozyme variant] | 2.33 | 1.85 | 1.64 | 2.71 | 3.4 | 2.08
8 | AAUACCCUGGUAAUCGAGUGA [Fam2.1 aminoacylation ribozyme variant] | 38.5 | 3.96 | 3.37 | 8.53 | 10.3 | 7.38
9 | AAUACCCUGGUCAACGAGUGA [Fam2.1 aminoacylation ribozyme variant] | 11.1 | 2.88 | 2.53 | 4.32 | 5.89 | 4.19
10 | AAUACCCUGGUCAUCCAGUGA [Fam2.1 aminoacylation ribozyme variant] | 10.6 | 3.01 | 2.88 | 4.96 | 5.84 | 5.25
11 | AAUACCCUGGUCAUCGAGGGA [Fam2.1 aminoacylation ribozyme variant] | 1.13 | 1.51 | 1.94 | 1.58 | 1.85 | 1.18
12 | AAUACCCUGGUGAUCGAGUGA [Fam2.1 aminoacylation ribozyme variant] | 13.1 | 3.23 | 3.02 | 6.6 | 6.66 | 5.35
13 | AAUACCGUGGUCAUCGAGUGA [Fam2.1 aminoacylation ribozyme variant] | 26.4 | 2.89 | 2.81 | 4.83 | 5.14 | 5.12
14 | AAUCACAUAGGUCAUCGGGUG [Fam2.2 aminoacylation ribozyme variant] | 49.2 | 4.88 | 4.18 | 7.16 | 6.45 | 7.73
15 | AAUCACCUAGAUCAUCGGGUG [Fam2.2 aminoacylation ribozyme variant] | 9.55 | 2.75 | 2.68 | 2.55 | 3.99 | 2.41
16 | AAUCACCUAGGCCAUCGGGUG [Fam2.2 aminoacylation ribozyme variant] | 25.5 | 2.88 | 3.86 | 3.01 | 5.04 | 3
17 | AAUCACCUAGGGCAUCGGGUG [Fam2.2 aminoacylation ribozyme variant] | 28 | 3.31 | 3.49 | 3.93 | 5.34 | 3.75
18 | AAUCACCUAGGUAAUCGGGUG [Fam2.2 aminoacylation ribozyme variant] | 14.1 | 2.64 | 2.08 | 3.17 | 4.18 | 2.67
19 | AAUCACCUAGGUCAGCGGGUG [Fam2.2 aminoacylation ribozyme variant] | 28.9 | 4.05 | 2.9 | 4.16 | 4.58 | 4.61
20 | AAUCACCUAGGUCAUCGGGAG [Fam2.2 aminoacylation ribozyme variant] | 1.94 | 1.67 | 2.17 | 1.51 | 1.55 | 1.89
21 | AAUCACCUAGGUCAUCGGGUG [Fam2.2 aminoacylation ribozyme variant] | 42.9 | 5.67 | 5.65 | 9.15 | 8.58 | 7.92
22 | AAUCACCUAGGUCAUCGGGUU [Fam2.2 aminoacylation ribozyme variant] | 11.5 | 4.1 | 3.65 | 6.71 | 5.39 | 5.39
23 | AAUCACCUAGGUCAUCGGUUG [Fam2.2 aminoacylation ribozyme variant] | 5.05 | 1.44 | 1.29 | 1.66 | 1.69 | 1.74
24 | AAUCACCUAGGUCUUCGGGUG [Fam2.2 aminoacylation ribozyme variant] | 46.9 | 3.79 | 3.98 | 5.09 | 6.75 | 4.54
25 | AAUCACCUAUGUCAUCGGGUG [Fam2.2 aminoacylation ribozyme variant] | 23.4 | 3.28 | 3.29 | 4.9 | 6.14 | 4.23
26 | AAUCCCCUGGUCAUCGAGUGA [Fam2.1 aminoacylation ribozyme variant] | 34.4 | 3.35 | 3.96 | 6.5 | 5.97 | 6.29

Row | Sequence | self-aminoacylation [1] | self-aminoacylation [2] | self-aminoacylation [3] | self-aminoacylation [4] | self-aminoacylation [5] | self-aminoacylation [6]
27 | AAUCGCCUAGGUCAUCGGGUG [Fam2.2 aminoacylation ribozyme variant] | 72.9 | 6.97 | 8.02 | 9.78 | 10 | 10.4
28 | AAUGACCUAGGUCAUCGGGUG [Fam2.2 aminoacylation ribozyme variant] | 26.1 | 3.66 | 3.56 | 4.85 | 5.22 | 4.56
29 | AAUUUCGCUAAUAGUCGCAAG [Fam3.1 aminoacylation ribozyme variant] | 2.64 | 2.19 | 1.88 | 2.24 | 1.9 | 1.94
30 | AAUUUUGCAAAUAGUCGCAAG [Fam3.1 aminoacylation ribozyme variant] | 2.73 | 2.33 | 2.31 | 1.51 | 2.48 | 2.02
31 | AAUUUUGCUAACAGUCGCAAG [Fam3.1 aminoacylation ribozyme variant] | 3.07 | 1.88 | 1.58 | 1.87 | 1.88 | 1.28
32 | AAUUUUGCUAAUACUCGCAAG [Fam3.1 aminoacylation ribozyme variant] | 1.5 | 1.5 | 1.35 | 1.47 | 1.03 | 1.01
33 | AAUUUUGCUAAUAGUCGCAAA [Fam3.1 aminoacylation ribozyme variant] | 2.06 | 3 | 2.15 | 2.22 | 2.42 | 3.1
34 | AAUUUUGCUAAUAGUCGCAAU [Fam3.1 aminoacylation ribozyme variant] | 2.09 | 2.95 | 2.13 | 2.91 | 2.09 | 2.88
35 | ACACACUACAAGCAAUCGGUC [Fam1B.1 aminoacylation ribozyme variant] | 1.65 | 1.2 | 1.24 | 0.855 | 1.02 | 0.815
36 | ACACACUUCAAGCAAUCGGUU [Fam1B.1 aminoacylation ribozyme variant] | 4.53 | 2.21 | 2.05 | 2.26 | 4.24 | 2.44
37 | ACACACUUCAAGCACUCGGUC [Fam1B.1 aminoacylation ribozyme variant] | 1.49 | 1.44 | 1.3 | 1.62 | 1.77 | 1.42
38 | ACACACUUCAGGCAAUCGGUC [Fam1B.1 aminoacylation ribozyme variant] | 1.75 | 1.56 | 1.44 | 1.42 | 1.84 | 1.38
39 | ACACACUUCCAGCAAUCGGUC [Fam1B.1 aminoacylation ribozyme variant] | 1.19 | 1.47 | 1.3 | 1.3 | 1.6 | 1.31
40 | ACACAUUUCAAGCAAUCGGUC [Fam1B.1 aminoacylation ribozyme variant] | 2.41 | 1.2 | 1.41 | 1.12 | 1.86 | 1.12
41 | ACACUUCAAACAAUCGGUCUG [Fam1A.1 aminoacylation ribozyme variant] | 75.9 | 1.7 | 1.43 | 2.16 | 33.3 | 1.57
42 | ACGUUUCCUAAUAGUCGCAAG [Fam3.1 aminoacylation ribozyme variant] | 1.35 | 1.61 | 1.21 | 1.08 | 1.3 | 1.33
43 | ACGUUUGCUAAGAGUCGCAAG [Fam3.1 aminoacylation ribozyme variant] | 2.95 | 1.35 | 1.44 | 1.65 | 1.44 | 1.12
44 | ACGUUUGCUAAUAGUCGCAAC [Fam3.1 aminoacylation ribozyme variant] | 1.42 | 1.36 | 1.18 | 1.43 | 0.859 | 0.972
45 | ACGUUUGCUCAUAGUCGCAAG [Fam3.1 aminoacylation ribozyme variant] | 2.58 | 1.89 | 1.91 | 2.49 | 3.57 | 1.88
46 | ACGUUUGCUUAUAGUCGCAAG [Fam3.1 aminoacylation ribozyme variant] | 1.76 | 1.32 | 1.46 | 1.67 | 1.75 | 1.68
47 | ACGUUUGGUAAUAGUCGCAAG [Fam3.1 aminoacylation ribozyme variant] | 2.95 | 1.75 | 1.55 | 2.1 | 2.45 | 1.54
48 | ACGUUUGUUAAUAGUCGCAAG [Fam3.1 aminoacylation ribozyme variant] | 3.28 | 1.85 | 1.69 | 2.19 | 1.71 | 2.07
49 | ACUAACCUAGGUCAUCGGGUG [Fam2.2 aminoacylation ribozyme variant] | 40.7 | 5.7 | 3.36 | 8.64 | 6.91 | 6.8
50 | ACUACCCAGGUCAUCGAGUGA [Fam2.1 aminoacylation ribozyme variant] | 23.2 | 3.72 | 3.89 | 6.28 | 5.32 | 5.02
51 | ACUACCCGGGUCAUCGAGUGA [Fam2.1 aminoacylation ribozyme variant] | 43.7 | 4.64 | 4.17 | 8.28 | 8.27 | 7.84
